Reference: US20260125448A1 (published 2026)

Target: T1, MAGE-A4 (peptide named MA4-286) peptide on HLA-A*02:01 (human)
T1 peptide: KVLEHVVRV
Test: multimer staining

binding result: recognises
B1: MA4-286 G6 TCR (TCR, V domains shown)
Valpha: AQTVTQSQPEMSVQEAETVTLSCTYDTSENNYYLFWYKQPPSRQMILVIRQEAYKQQNATENRFSVNFQKAAKSFSLKISDSQLGDTAMYFCASHSGAGSYQLTFGKGTKLSVIP
Vbeta: DTGVSQDPRHKITKRGQNVTFRCDPISEHNRLYWYRQTLGQGPEFLTYFQNEAQLEKSRLLSDRFSAERPKGSFSTLEIQRTEQGDSAMYLCASSPTGGFYEQYFGPGTRLTVT
